In PMC4252038, “H2O2 Inhibits ABA-Signaling Protein Phosphatase HAB1” (PLoS ONE, 2014):

Biological target: the molecule itself
Assay: SEC; size exclusion chromatography of His6-MBP-HAB1(171–511 aa) treated with 0.3 mM H2O2 for 30 min at 30°C; monomer to disulfide-linked dimer

B1: His6-MBP-HAB1(171–511 aa) wild type (domain or fragment, Arabidopsis thaliana, UniProt Q9CAJ0 171-511, looked up)
chain: NSNHLVKGRSVYELDCIPLWGTVSIQGNRSEMEDAFAVSPHFLKLPIKMLMGDHEGMSPSLTHLTGHFFGVYDGHGGHKVADYCRDRLHFALAEEIERIKDELCKRNTGEGRQVQWDKVFTSCFLTVDGEIEGKIGRAVVGSSDKVLEAVASETVGSTAVVALVCSSHIVVSNCGDSRAVLFRGKEAMPLSVDHKPDREDEYARIENAGGKVIQWQGARVFGVLAMSRSIGDRYLKPYVIPEPEVTFMPRSREDECLILASDGLWDVMNNQEVCEIARRRILMWHKKNGAPPLAERGKGIDPACQAAADYLSMLALQKGSKDNISIIVIDLKAQRKFKTRT
notes: HAB1 protein phosphatase 2C, Arabidopsis thaliana, phosphatase domain, residues 171-511; In some assays the protein was treated with 0.3 mM or 1 mM H2O2 (30 min, 30°C) beforehand; the treatment is told by the assay; After 0.3 mM H2O2 it is a mixture of monomers and disulfide-linked dimers (C186, C274), after 1 mM higher oligomers; also called HAB1 phosphatase domain; wild type HAB1; source: E. …
- stoichiometry N: 2
